This note sets out measurements from FireProtDB (doi:10.1110/ps.8.9.1843).

Usually Tm stands for the temperature at which the thermal transition is half complete.

The chains are these.
B1: Guanyl-specific ribonuclease Sa, P05798 (parent)
chain: DVSGTVCLSALPPEATDTLNLIASDGPFPYSQDGVVFQNRESVLPTQSYGYYHEYTVITPGARTRGTRRIITGEATQEDYYTGDHYATFSLIDQTC
B2: Guanyl-specific ribonuclease T1, P00651 (parent)
chain: MMYSKLLTLTTLLLPTALALPSLVERACDYTCGSNCYSSSDVSTAQAAGYQLHEDGETVGSNSYPHKYNNYEGFDFSVSSPYYEWPILSSGDVYSGGSPGADRVVFNENNQLAGVITHTGASGNNFVECT

The variants in series [1] derive from B1. The note with it: Kitasatospora aureofaciens; pH 7; Thermal; CD; MOPS 30 mM; structure 1RGG; whole UniProt chain shown.
In series [2] the parent is B2. Conditions: Aspergillus oryzae (strain ATCC 42149 / RIB 40), 25 °C, Urea, CD, structure 1RN1, whole UniProt chain shown.

Turning to DVSGTVCLSALPPEATDTLNLIASDGPFPYSQDGVVFQNRESVLPTQSYGYYHEYTVITPGARTRGTRRIITGKATQEDYYTGDHYATFSLIDQTC [E74K], in series [1], the Tm is 51.1 °C and the “unfolding enthalpy (van 't Hoff)” value came to 94 kcal/mol.
Turning to DVSGTVCLSALPPEATDTLNLIASKGPFPYSQDGVVFQNRESVLPTQSYGYYHEYTVITPGARTRGTRRIITGEATQEDYYTGDHYATFSLIDQTC [D25K], in series [1], the Tm worked out at 50.2 °C and the “unfolding enthalpy (van 't Hoff)” value is 93 kcal/mol.
With MMYSKLLTLTTLLLPTALALPSLVERACDYTCGSNCYSSSDVSTAQAAGYQLHEDGETVGSNSYPHKYNNYEGFAFSVSSPYYEWPILSSGDVYSGGSPGADRVVFNENNQLAGVITHTGASGNNFVECT [D75A], in series [2] (pH 2.5, glycine 30 mM), the denaturant m value was determined as 1.69 kcal/mol/M and the “denaturant midpoint (higher = more stable)” value was determined as 3.42 M. For the same variant, in series [2] (pH 7, MOPS 30 mM), the denaturant m value came out at 1.21 kcal/mol/M and the “denaturant midpoint (higher = more stable)” value came to 5.67 M.
